According to US20230257469A1 (SINOCELLTECH, published 2023):
Read-outs that look alike come from different tables or passages of the source.

Key:
EGFR on tumor cells [1] = biological target: T1, EGFR on tumor cells (UniProt P00533 25-1210, limits assumed); assay: cell-based or functional assay
[2] = biological target: T2, Recombinant human EGFR-His protein (human, UniProt P00533 25-645); assay: ELISA as in Example 1.2.1
T2 construct: Bought protein; also called recombinant human EGFR protein; human EGFR protein; not shown: His tag

EGFR on tumor cells [3] = biological target: T1, EGFR on tumor cells; assay: cell-based or functional assay; remark: listed apart in the source
[4] = biological target: T2, Recombinant human EGFR-His protein; assay: ELISA; EGFR-His coated at 1.37-3000 ng/mL, antibody at 13.89 nM; EC50 counted on the coated antigen concentration
EGFR on tumor cells [5] = biological target: T1, EGFR on tumor cells; assay: cell-based or functional assay; remark: listed apart in the source
EGFR on tumor cells [6] = biological target: T1, EGFR on tumor cells; assay: cell-based or functional assay; remark: listed apart in the source
[7] = biological target: T2, Recombinant human EGFR-His protein; assay: ELISA as in Example 1.2.1; EC50 counted on the coated EGFR-His concentration
[8] = biological target: T2, Recombinant human EGFR-His protein; assay: BLI (Fortebio OctetRED96e), biotinylated recombinant human EGFR protein, fit over several concentrations
[9] = biological target: T2, Recombinant human EGFR-His protein; assay: ELISA of expressed phage-library clones on recombinant human EGFR protein

SCT200 (antibody)
EC50 (nM), inhibition of proliferation of Fadu cells, ligand: 1 µg /mL EREG (EGFR on tumor cells [1]): 14.5 nM
EC50 (nM), inhibition of proliferation of Fadu cells, ligand: None (EGFR on tumor cells [1]): 0.129 nM
EC50 (nM), inhibition of proliferation of MDA-MB-468 cells, ligand: 8 ng/mL HB-EGF (EGFR on tumor cells [1]): 7.52 nM
EC50 (nM), inhibition of proliferation of MDA-MB-468 cells, ligand: 1 µg/mL EREG (EGFR on tumor cells [1]): 1.44 nM
EC50 (nM), inhibition of proliferation of MDA-MB-468 cells, ligand: None (EGFR on tumor cells [1]): 1.97 nM
Maximum inhibition rate (%), proliferation of Fadu cells, ligand: 4 ng/mL EGF (EGFR on tumor cells [1]): 68.5%
Maximum inhibition rate (%), proliferation of Fadu cells, ligand: 8 ng/mL HB-EGF (EGFR on tumor cells [1]): 65%
Maximum inhibition rate (%), proliferation of Fadu cells, ligand: 1 µg /mL EREG (EGFR on tumor cells [1]): 48.3%
Maximum inhibition rate (%), proliferation of Fadu cells, ligand: None (EGFR on tumor cells [1]): 49.7%
Maximum inhibition rate (%), proliferation of MDA-MB-468 cells, ligand: 8 ng/mL HB-EGF (EGFR on tumor cells [1]): 53.4%
Maximum inhibition rate (%), proliferation of MDA-MB-468 cells, ligand: 200 ng/mL BTC (EGFR on tumor cells [1]): 40.9%
Maximum inhibition rate (%), proliferation of MDA-MB-468 cells, ligand: 1 µg/mL EREG (EGFR on tumor cells [1]): 66.7%
Maximum inhibition rate (%), proliferation of MDA-MB-468 cells, ligand: None (EGFR on tumor cells [1]): 52.3%
EC50 [2]: 0.167 mg/L

B1: human-mouse chimeric antibody EGFR-mhPA8 (antibody, human IgG1, kappa, V domains shown)
VH: QVQLQQSGPDLVKPGASVRISCKVSGYTFTTYYTHWVKQRPGRGLEWIGWIYPGDVNTKYNEKFKGKATLTADKTSSTAYMQLSSLTSEDSAVYFCAREDPGSNYFDYWGQGTTLTVSS
VL: DIQMTQSPASLAASVGETVTITCRASENIYYSLAWYQQKEGKSPQLLIYITNGLADGVPSRFSGSGSGTQYSMKIDSMQPEDTATYFCKQSYDVPLTFGAGTKLEMKR
notes: Human IgG1 and kappa constant regions; also called murine antibody EGFR-mhPA8
EC50 of inhibition of proliferation of MDA-MB-468 cells (WST-8) (EGFR on tumor cells [3]): 2.78 nM
EC50 [4]: 0.129 mg/L

B2: humanized antibody EGFR-HPA8 (antibody, human IgG1, kappa, V domains shown)
VH: EVQLVQSGAEVKKPGATVKISCKVSGYTFTTYYTHWVKQAPGKGLEWIGWIYPGDVNTKYNEKFKGRVTLTADTSTDTAYMELSSLRSEDTAVYYCAREDPGSNYFDYWGQGTLVTVSS
VL: DIQMTQSPSSLSASVGDRVTITCRASENIYYSLAWYQQKPGKAPQLLIYITDGLADGVPSRFSGSGSGTDYTLKIDSLQPEDFATYYCKQSYDVPLTFGGGTKVEIKR
notes: IgG1/kappa; expressed in HEK-293 cells (fut8 knockout), ADCC-enhanced; also called EGFR-HPA8-Ae0
EC50 for the induction of ADCC, recombinant CD16a reporter gene system (Jurkat-NFAT-Luc2p-CD16A effector cells, A431 target cells) (EGFR on tumor cells [3]): 0.008 nM
EC50 (nM), inhibition of proliferation of MDA-MB-468 cells, ligand: 8 ng/mL HB-EGF (EGFR on tumor cells [5]): 2.64 nM
EC50 (nM), inhibition of proliferation of MDA-MB-468 cells, ligand: 1 µg/mL EREG (EGFR on tumor cells [5]): 0.81 nM
EC50 (nM), inhibition of proliferation of MDA-MB-468 cells, ligand: None (EGFR on tumor cells [5]): 0.9 nM
EC50 (nM), inhibition of proliferation of Fadu cells, ligand: 1 µg /mL EREG (EGFR on tumor cells [6]): 10.9 nM
EC50 (nM), inhibition of proliferation of Fadu cells, ligand: None (EGFR on tumor cells [6]): 0.126 nM
EC50 [7]: 0.117 mg/L
Kd [8]: 0.0069 nM
koff [8]: 1.1e-05 s⁻¹
kon [8]: 1.59e+06 M⁻¹ s⁻¹

B3: EGFR-mhPA8 scFv antibody (scFv)
scFv: DIQMTQSPASLAASVGETVTITCRASENIYYSLAWYQQKEGKSPQLLIYITNGLADGVPSRFSGSGSGTQYSMKIDSMQPEDTATYFCKQSYDVPLTFGAGTKLEMKSSGGGGSGGGGGGSSRSSQVQLQQSGPDLVKPGASVRISCKVSGYTFTTYYTHWVKQRPGRGLEWIGWIYPGDVNTKYNEKFKGKATLTADKTSSTAYMQLSSLTSEDSAVYFCAREDPGSNYFDYWGQGTTLTVSS
notes: Screened as a clone of a phage display library in pComb3x; also called EGFR-mhPA8 scFv antibody clone; murine antibody scFv
binding result [9]: binds
